Assay results published in PMC3025356, “Mechanism of the Ca^2+-Dependent Interaction between S100A4 and Tail Fragments of Nonmuscle Myosin Heavy Chain IIA” (Journal of Molecular Biology, 2011).

Assays:
M200 filaments [1] = test: Stopped-flow turbidity, dissociation of M200 filaments on NaCl jump or dilution; assay type: biochemical, human
Method: (§1) Fig. 9 Dissociation of M200 filaments by S100A4. (a) Initially, M200 was added (i) from a concentrated stock in 0.5 M NaCl to give a final concentration of 5 μM M200 (with respect to the polypeptide chain) in 100 mM NaCl, 10 mM Hepes, and 0.1 mM Ca^2+ at pH 7.5 and 20 °C. A biphasic rise in turbidity was recorded for 200 s (continuous line). Then 10 μM S100A4 (with respect to monomer concentration) was added (ii), followed by 0.2 mM EGTA (iii) and 1 mM Ca^2+ (iv). […] (b) M200 was diluted (i) into 100 mM NaCl to form filaments as in (a), then 5 μM S100A4 was added (ii), causing a 54% drop in turbidity. A further 5 μM S100A4 (iii) caused turbidity to fall to almost zero. (c) Stopped-flow records monitoring the dissociation of 5 μM M200 filaments on jumping [NaCl] from 100 mM to 120 mM NaCl. Other components of the buffer were 20 mM Hepes, 1 mM Mg^2+, and 100 μM Ca^2+ at pH 7.5 and 20 °C. […] In the presence of 20 μM S100A4 (lower trace), the turbidity decreased by 87% with a rate constant of 0.2 s^− 1.
It is of interest to know whether S100A4 drives depolymerisation solely by binding to free M monomer and allowing the polymer equilibrium to readjust (i.e., via k− 4 and k5), or whether S100A4 also binds to the filament bundle and actively depolymerises an M200 unit (via k6 and k− 7). […] In an attempt to address this question, the dissociation rate of the M200 filament was followed on jumping the NaCl concentration from 100 mM to 120 mM in the absence and in the presence of S100A4 (Fig. 9c). Under these conditions in the absence of S100A4, turbidity dropped to about 50% of its initial value with a profile fitted to a double exponential (k1obs = 0.33 s^− 1 with 12% amplitude and k2obs = 0.037 s^− 1 with 43% amplitude, relative to the total amplitude expected for a full dissociation). Therefore, at the end point of this reaction, the filament concentration decreased by about 2-fold (turbidity is proportional to concentration over this range; Fig. S5b). There should also be a corresponding rise in M200 monomer concentration, but this may be less than accounted for by the loss of filaments if the drop in turbidity was also associated with a rise in small M200 oligomers with a lower specific turbidity. […]

M200 filaments [2] = conditions: cited from earlier work
Text: Over the last two decades, there has been much interest in the role of the S100 Ca^2^+-binding protein family in the regulation of cellular events.[1,2] Identifying the specific targets of each of the 24 members[3] and deducing their mechanisms of action in vitro and in vivo remain to be a challenge. This is exemplified by S100A4 (also known as Mts1, metastasin, p9Ka, pEL98, calvasculin, and Fsp-1), which has been implicated in a wide range of cellular events and numerous diseases and binds to several different targets in vitro.[4–6] In particular, following early work,[7–9] there have been ma ... || A corresponding stoichiometry is also seen in the interaction of S100A4 with M200, where 2 mol of S100A4 monomer was required to solubilise 1 mol of M200 aggregate (when expressed as M200 polypeptide chain concentration) (Fig. 9b). […] These stoichiometries complicate the calculation of the equilibrium parameters for the models described in Schemes 1 and 2. If the binding sites remaine ...

M200 filaments [3] = assay type: biochemical, human
Method: as §1
Absorption spectra were recorded using a Cary 50 spectrophotometer (Varian Ltd., Walton on Thames, UK). Protein concentrations were calculated from their absorbance at 280 nm, using molar coefficients of 2980 M^− 1 cm^− 1 (M200 and S100A4) and 1490 M^− 1 cm^− 1 (M111), based on their tyrosine content (two residues per chain and one residue per chain, respectively). Myosin fragments were measured in 0.5 M NaCl buffer, and care was taken to correct for the small contribution from turbidity. Protein concentrations are stated in terms of their monomeric polypeptide chain concentration. Under the conditions used for kinetic analysis, S100A4 is predominantly a dimer,[21,25] and M200 and M111 form stable coiled coils; therefore, the molar protein concentrations are half those given in all three cases. Fluorescence emission spectra were also checked, and those preparations containing a detectable shoulder at 340 nm due to contaminating tryptophan-containing proteins were subjected to further purification. F-M16^N concentrations were based on fluorescein absorbance (ɛ490 = 78,000 M^− 1 cm^− 1). […] Quin-2 concentrations were calculated from ɛ354 = 5000 M^− 1 cm^− 1 in the absence of Ca^2+.[39] Turbidity assays used to monitor M200 filament formation and solubilisation with manual mixing were carried out using a 10-mm pathlength and a 0.1-ml microcuvette (105.250-QS; Hellma, Southend on Sea, UK) at a wavelength of 300 nm. For determination of the free Ca^2+ concentration, Fura-2 fluorescence excitation spectra were measured in the same cuvette using the 2-mm path for excitation to minimise inner filter effects.

## S100A4: recombinant S100A4 expressed in E. coli BL21(DE3)
M200 filaments [1]; 20 μM S100A4, 5 μM M200, 100 to 120 mM NaCl
  decrease in turbidity on NaCl jump: 87%
M200 filaments [1]; 20 μM S100A4, NaCl jump
  initial rate relative to absence of S100A4: five times faster than in the absence of S100A4
  kobs, biphasic fit: 0.21 s^− 1
  rate constant (single exponential): 0.19 s^− 1
M200 filaments [2]; 20 mM NaCl
  dissociation of rod filaments: ineffective at dissociating rod filaments
M200 filaments [2]; ref 11 (Li et al.)
  S100A4 dimer required to disassemble 1 mol of NM-MHC IIA rods: 1 mol of S100A4 dimer
M200 filaments [3]
  S100A4 monomer excess per M200 chain required for full solubilisation: 2 -fold molar excess
M200 filaments [3]; 5 μM S100A4, M200 filaments, 100 mM NaCl
  drop in turbidity: 54%
M200 filaments [3]; excess EGTA
  effect of excess EGTA on solubilisation: reversed the process, allowing M200 filaments to reform
M200 filaments [3]; further 5 μM S100A4 (10 μM total)
  turbidity after further S100A4: almost zero
M200 filaments [3]; per M200 polypeptide chain
  S100A4 monomer required to solubilise 1 mol of M200: 2 mol of S100A4 monomer
